# According to patent US20200292534A1:
# T1: NLpoly11S
# T1 chain: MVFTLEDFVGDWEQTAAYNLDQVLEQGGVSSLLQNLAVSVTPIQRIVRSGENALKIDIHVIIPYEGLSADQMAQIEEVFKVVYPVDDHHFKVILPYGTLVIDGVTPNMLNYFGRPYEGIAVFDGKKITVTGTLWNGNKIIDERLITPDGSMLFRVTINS
# Molecular target: T1, NLpoly11S
# Assay: luminescence complementation titration, one-site specific binding fit
Binder,Bmax,Kd [µM]
VEGYRLFEKIL (modifications not checked) [array2.100],35000,10.6
VEGYRLFKKAS (modifications not checked) [array2.56],15900,0.641
VEGYRLFKQES (modifications not checked) [array2.60],4350,10.6
VEGYRLFKEEL (modifications not checked) [array2.90],12200,101
VEGYRLFQKEL (modifications not checked) [array2.93],4090,1.69
VEGYRLFQKAL (modifications not checked) [array2.92],12300,2.02
VTGYRLFKEIS (modifications not checked) [array2.7],32000,4.44
VEGYRLFQQEL (modifications not checked) [array2.96],105000,99.4
VTGYRLFEQES (modifications not checked) [array2.24],1830,7.83
VEGYRLFKKIL (modifications not checked) [array2.82],43400,0.563
VTGYRLFEKIS (modifications not checked) [array2.19],123000,0.605
VTGYRLFEKAS (modifications not checked) [array2.20],36300,1.79
VEGYRLFQQIL (modifications not checked) [array2.94],2280,9.39
VEGYRLFKEIL (modifications not checked) [array2.88],9830,17.8
VTGYRLFKKAS (modifications not checked) [array2.2],104000,0.241
VTGYRLFQQIS (modifications not checked) [array2.13],19400,0.876
VEGYRLFEKEL (modifications not checked) [array2.102],962,5.79

Binder,Bmax,Kd [µM]
VTGYRLFQQES (modifications not checked) [array2.15],5200,7.49
VEGYRLFEKAL (modifications not checked) [array2.101],6370,12.6
VEGYRLFKEES (modifications not checked) [array2.63],17300,220
VEGYRLFQEAL (modifications not checked) [array2.98],2700,99.9
VTGYRLFEQAS (modifications not checked) [array2.23],3820,4.17
VEGYRLFEQES (modifications not checked) [array2.78],39400,252
VEGYRLFKQAL (modifications not checked) [array2.86],2300,2.27
VEGYRLFEKIS (modifications not checked) [array2.73],22500,2.15
VTGYRLFKEAS (modifications not checked) [array2.8],3930,2.57
VTGYRLFQQAS (modifications not checked) [array2.14],4350,1.11
VEGYRLFQKAS (modifications not checked) [array2.65],10600,1.93
VEGYRLFEEAS (modifications not checked) [array2.80],383000,1420
VEGYRLFKQAS (modifications not checked) [array2.59],2300,2.09
VTGYRLFQKES (modifications not checked) [array2.12],17200,0.417
VEGYRLFQKIL (modifications not checked) [array2.91],50500,2.08
VEGYRLFQEAS (modifications not checked) [array2.71],44900,24

# More lines, in order of falling Kd, values ahead:
Bmax,Kd [µM],Binder
9880,336,VEGYRLFEQAL (modifications not checked) [array2.104]
29200,230,VEGYRLFQEIS (modifications not checked) [array2.70]
5110,67.3,VTGYRLFQEES (modifications not checked) [array2.18]
18000,52.8,VEGYRLFEQIS (modifications not checked) [array2.76]
26900,48.3,VEGYRLFEQAS (modifications not checked) [array2.77]
5570,42.4,VEGYRLFKEAL (modifications not checked) [array2.89]
2380,22.1,VEGYRLFKEAS (modifications not checked) [array2.62]
3750,20,VEGYRLFQQAS (modifications not checked) [array2.68]
38200,18.8,VEGYRLFQQAL (modifications not checked) [array2.95]
5460,14.4,VEGYRLFKEIS (modifications not checked) [array2.61]
1790,12.6,VEGYRLFKQEL (modifications not checked) [array2.87]
121000,10.8,VTGYRLFEQIS (modifications not checked) [array2.22]
31400,10.3,VEGYRLFKQIL (modifications not checked) [array2.85]
5220,8.14,VEGYRLFQQIS (modifications not checked) [array2.67]
3810,4.14,VEGYRLFEKAS (modifications not checked) [array2.74]
1450,3.86,VTGYRLFKEES (modifications not checked) [array2.9]

Bmax,Kd [µM],Binder
1170,2.97,VEGYRLFEKES (modifications not checked) [array2.75]
3490,2.87,VEGYRLFQKES (modifications not checked) [array2.66]
1320,2.56,VTGYRLFQEIS (modifications not checked) [array2.16]
21500,2.09,VEGYRLFKQIS (modifications not checked) [array2.58]
31000,1.95,VTGYRLFKQAS (modifications not checked) [array2.5]
20800,1.59,VEGYRLFKKAL (modifications not checked) [array2.83]
8620,1.49,VTGYRLFEKES (modifications not checked) [array2.21]
7830,1.41,VEGYRLFKKEL (modifications not checked) [array2.84]
5010,1.35,VTGYRLFKQES (modifications not checked) [array2.6]
3370,0.891,VEGYRLFKKES (modifications not checked) [array2.57]
80900,0.749,VTGYRLFQKAS (modifications not checked) [array2.11]
36500,0.586,VEGYRLFQKIS (modifications not checked) [array2.64]
113000,0.0812,VTGYRLFQKIS (modifications not checked) [array2.10]
42400,0.078,VEGYRLFKKIS (modifications not checked) [array2.55]
135000,0.0133,VTGYRLFKKIS (modifications not checked) [array2.1]
